Biological target: human FLT3 domain 1 Fc fusion protein (wild type) (human) (UniProt P36888)
Test: SPR (Carterra LSA); FLT3 D1-Fc captured on anti-human Ig Fc, Fab as analyte; mean ± SEM, n=4

Kd [nM]	koff [s⁻¹]	kon [M⁻¹ s⁻¹]	Binder
5.2	0.0046	890000	Fab fragment of antibody 17566 (Fab, V domains shown) VH: QVTLKESGPVLVKPTETLTLTCTVSGFSFNNARMGVNWIRQPPGKALEWLAHIFSNDEKSYSTSLKSRLTISKDISKSQVVLTMTNMDPVDTATYYCARIVGYGSGWRLLGDYWGQGTLVTVSS VL: AIQMTQSPSSLSASVGDRVTITCRASQGITNDLGWYQQKPGKAPKLLIYAASSLQSGVPSRFSGSGSGTDFTLTISSLQPEDFATYYCLQDYNYPWTFGQGTKVEIK
3.1	0.003	980000	Fab fragment of antibody 17497 (Fab, V domains shown) VH: QVQLQESGPGLVKPSGTLSLTCAVSGGSISSTNWWSWVRQPPGKGLEWIGEISHRGSTNYNPSLKSRVTISVDKSKNQFSLKLSSVTAADTAVYYCARDPEMTLYYYYGMDVWGQGTTVTVSS VL: DIQMTQSPSSLSASVGDRVTITCRASRGIRNDLGWYQQKPGKAPKRLIYAASSLQSGVPSRFSGSGSGTEFTLTISSLQPEDFATYYCLQHNSYPLTFGGGTKVEIK
19.3	0.0099	520000	Fab fragment of antibody 17543 (Fab, V domains shown) VH: QVTLKESGPVLVKPTETLTLTCTVSGFSLINARMGVTWIRQPPGKALEWLAHIFSNDEKSYSTSLKSRLTISKDTSKSQVVLTMTNMDPVDTATYYCARIPGYSRGWDYYYYGMDVWGQGTMVTVSS VL: DIQMTQSPSSLSASVGDRVTITCRASQGIRNDLGWYQQKPGKAPKRLIYAASTLQSGVPSRFSGSGSGTEFTLTISSLQPEDFATYYCLQHNSYPWTFGQGTKVEIK
